Measurements reported in patent publication US20170283486A1.

Tests used:
[1] = target: monomeric full length gp120 of BaL isolate (HIV-1 isolate BaL); assay: SPR, mAb immobilised, 1:1 Langmuir
[2] = target: single-chain gp120BaL-sCD4 complex (FLSC) (HIV-1 isolate BaL) (UniProt P01730); assay: SPR, mAb immobilised, 1:1 Langmuir
[3] = target: single-chain gp120BaL-sCD4 complex (FLSC) (HIV-1 isolate BaL) (UniProt P01730); assay: isothermal titration calorimetry, A32 IgG

Substance | Kd [1] [nM] | koff [1] [s⁻¹] | kon [1] [M⁻¹ s⁻¹] | Kd [2] [nM] | fold change of KD, FLSC relative to gp120BaL [2] [fold] | fold change of ka, FLSC relative to gp120BaL [2] [fold] | fold change of kd, FLSC relative to gp120BaL [2] [fold] | koff [2] [s⁻¹] | kon [2] [M⁻¹ s⁻¹] | Kd [3] [nM] | ΔH [3] [kJ/mol]
mAb 2.2c (antibody) | 12 | 0.000875 | 73000 | 0.5 | 24 | 15.7 | 1.6 | 0.000556 | 1.15e+06 | – | –
mAb A32 (antibody) | 3.2 | 0.000437 | 139000 | 0.23 | 13.9 | 3.2 | 4.3 | 0.000102 | 443000 | 11.5 | -13.2
mAb JR4 (antibody) | 2.34 | 0.000611 | 262000 | 0.18 | 13 | 2.5 | 5.3 | 0.000116 | 643000 | – | –
mAb N5-i5 (antibody) | 5.03 | 0.00036 | 72000 | 0.29 | 17.3 | 11.5 | 1.5 | 0.000238 | 825000 | – | –
mAb N60-i3 (antibody) | 2.03 | 0.000512 | 253000 | 0.25 | 8 | 4.9 | 1.6 | 0.000314 | 1.24e+06 | – | –
